Data reported in patent US20230039401A1, “COMPOSITIONS AND METHODS FOR TREATING NRP2-ASSOCIATED DISEASES” (aTyr Pharma, Inc., priority 2018, published 2023).
Entries after “also recorded” stand apart in the source; their conditions may differ.

Legend:
NRP2 = target: T1, NRP2 (Homo sapiens, UniProt O60462); test: SPR binding of known ligands to NRP2; details: for binding of ligand to NRP2: applicant's system; for Binding to NRP2 observed by SPR: known NRP2 ligands
T1 construct: Fc (C); purchased R&D Systems 2215-N2
Procedure: (§1) Protein-Protein Interaction studies. […] SPR experiments were conducted on a Bio-Rad ProteOn XPR36 Protein Interaction Array instrument. Proteins were immobilized on different channels of ProteOn GLC sensor chips through amine coupling. Analyte proteins were flowed over the immobilized proteins. The sensor chip surface was regenerated between each analyte run to remove interacting proteins. Data was double referenced against an interspot (untreated chip surface) and a blank surface (activated and deactivated for amine coupling).
(§2) A subset of the known ligands of NRP2 appears to compete binding of Fc-HRS(2-60) to NRP2.

[1] = target: T2, NRP2:Fc-HRS(2-60) interaction (Homo sapiens, UniProt O60462); test: SPR competition of known NRP2 ligands with the NRP2:Fc-HRS(2-60) interaction; type: binding; details: for effect of ligand on binding of NRP2 to Fc-HRS(2-60) (SPR): NRP2 in the presence of the ligand over immobilized Fc-HRS(2-60); for Competes with Fc-HRS(2-60) for NRP2 binding: SPR, NRP2 binding to immobilized Fc-HRS(2-60) in presence of ligand
T2 construct: Fc (C); purchased R&D Systems 2215-N2
Procedure: as §1
Studies were performed to confirm the binding specificity of Neuropilin 2 (NRP2) to Fc-HRS(2-60) using orthologous methods to those used in the large scale Retrogenix screening (Example 1). In a series of experiments, Fc-HRS(2-60) and related proteins were immobilized on SPR chips, and NRP2 and related proteins were flowed as analytes. Upon confirmation of the NRP2:Fc-HRS(2-60) interaction, the dependence on divalent cations was tested as NRP2 is known to have Ca^2+ binding sites. The effects of previously characterized NRP2 ligands on the NRP2: Fc-HRS(2-60) interaction was also tested to determine if these known ligands have competitive effects on the Fc-HRS(2-60) interaction.
as §2

[2] = target: T3, cell-expressed NRP2 (NRP2a-GFP fusion protein on HEK293T cells) (Homo sapiens, UniProt O60462); test: Immunofluorescence binding of Fc-HRS (2-60) to HEK293T cells overexpressing NRP2v2-GFP; details: 175 nM Fc-HRS (2-60)/anti-Fc-PE; pre-incubation with the test agent
T3 construct: host or cells: HEK293T
Procedure: Reagents: • PE anti-human IgG Fc Antibody, clone HP6017, Biolegend cat 409304 • Mouse Anti-HRS monoclonal antibody (1-96) Clone 1C8, Abnova cat H00003035-M01 • Mouse IgG2a, Isotype control antibody (MOPC-173), Biolegend cat 400223 • Recombinant Human VEGF-C Protein, R&D Systems, cat 2179-VC-025/CF • Formaldehyde, 16%, methanol free, Ultra Pure, Polysciences, cat 18814-10 • Hoechst 33342, Trihydrochloride, Trihydrate, ThermoFisher Scientific, cat H1399 • Fc-HRS (2-60) was prepared as described in PCT application PCT/US2014/029699 • Gibco DMEM, High Glucose, ThermoFisher Scientific, cat 11965092 • PolyJet™ In Vitro DNA Transfection Reagent, SignaGen, cat SL100688 • Neuropilin 2 (NRP2) (NM_003872) Human ORF Clone, Origene, cat RG220706 • Collagen Coating Solution, Cell Applications Cat 125-100 • 1×PBS containing 1% BSA, 0.9 mM CaCl2 and 20 mM glucose • Binding buffer containing 1% normal mouse IgG (sigma cat 18765) and 2.5% (Human Fc Receptor Binding Inhibitor, ebioscience 14-9161-73).
Cell culture and transfection. […]
Immunofluorescence assays on cultured cells. Binding and quantitation of Fc-HRS (2-60) to cell-expressed NRP2 was achieved using immunofluorescence microscopy. […] The Hoechst stain was replaced with 1×PBS and subsequently read on an IN Cell Analyzer 2200. 20× images were acquired and analyzed using In Cell Analyzer 1000 Workstation software. […]

Molecule	binding of ligand to NRP2 (NRP2)	Binding to NRP2 observed by SPR (NRP2)	effect of ligand on binding of NRP2 to Fc-HRS(2-60) (SPR) [1]	Competes with Fc-HRS(2-60) for NRP2 binding [1]	inhibition of Fc-HRS (2-60) binding to cells expressing NRP2a-GFP [2]
SEMA3C: commercial protein (R&D Systems #5570-S3) (protein, left off: a dimerising Fc or GST) GSSQPQARVYLTFDELRETKTSEYFSLSHHPLDYRILLMDEDQDRIYVGSKDHILSLNINNISQEALSVFWPASTIKVEECKMAGKDPTHGCGNFVRVIQTFNRTHLYVCGSGAFSPVCTYLNRGRRSEDQVFMIDSKCESGKGRCSFNPNVNTVSVMINEELFSGMYIDFMGTDAAIFRSLTKRNAVRTDQHNSKWLSEPMFVDAHVIPDGTDPNDAKVYFFFKEKLTDNNRSTKQIHSMIARICPNDTGGLRSLVNKWTTFLKARLVCSVTDEDGPETHFDELEDVFLLETDNPRTTLVYGIFTTSSSVFKGSAVCVYHLSDIQTVFNGPFAHKEGPNHQLISYQGRIPYPRPGTCPGGAFTPNMRTTKEFPDDVVTFIRNHPLMYNSIYPIHKRPLIVRIGTDYKYTKIAVDRVNAADGRYHVLFLGTDRGTVQKVVVLPTNNSVSGELILEELEVFKNHAPITTMKISSKKQQLYVSSNEGVSQVSLHRCHIYGTACADCCLARDPYCAWDGHSCSRFYPTGKRRSRRQDVRHGNPLTQCRGFNLKAYRNAAEIVQYGVKNNTTFLECAPKSPQASIKWLLQKDKDRRKEVKLNERIIATSQGLLIRSVQGSDQGLYHCIATENSFKQTIAKINFKVLDSEMVAVVTDKWSPWTWASSVRALPFHPKDIMGAFSHSEMQMINQYCKDTRQQHQQGDESQKMRGDYGKLKALINS	do bind	Yes	do not affect	No	
VEGF-A121: commercial protein (Peprotech #100-20A) (protein) APMAEGGGQNHHEVVKFMDVYQRSYCHPIETLVDIFQEYPDEIEYIFKPSCVPLMRCGGCCNDEGLECVPTEESNITMQIMRIKPHQGQHIGEMSFLQHNKCECRPKKDRARQEKCDKPRR	does not bind	No	unaffected	No	
mouse SEMA3F: commercial protein (R&D Systems #3237-S3) (protein, left off: a dimerising Fc or GST) ATPIQDQLPATPRVRLSFKELKATGTAHFFNFLLNTTDYRILLKDEDHDRMYVGSKDYVLSLDLHDINREPLIIHWAASPQRIEECILSGKDGNGECGNFVRLIQPWNRTHLYVCGTGAYNPMCTYVNRGRRAQALPWTQMQVVRGRGSRATDGADRPTPTAPRQDYIFYLEPEKLESGKGKCPYDPKLDTASALINEELYAGVYIDFMGTDAAIFRTLGKQTAMRTDQYNSRWLNDPSFIHAELIPDSAERNDDKLYFFFRERSAEAPQNPAVYARIGRICLNDDGGHCCLVNKWSTFLKARLVCSVPGEDGIETHFDELQDVFVQQTQDVRNPVIYAVFTSSGSVFRGSAVCVYSMADIRMVFNGPFAHKEGPNYQWMPFSGKMPYPRPGTCPGGTFTPSMKSTKDYPDEVINFMRTHPLMYQAVYPLQRRPLVVRTGAPYRLTTVAVDQVDAADGRYEVLFLGTDRGTVQKVIVLPKDDQEVEELMLEEVEVFKEPAPVKTMTISSKRQQLYVASAVGVTHLSLHRCQAYGAACADCCLARDPYCAWDGQACSRYTASSKRRSRRQDVRHGNPIRQCRGFNSNANKNAVESVQYGVAGSAAFLECQPRSPQATVKWLFQRDPSDRRREIRAEDRFLRTEQGLLLRALQLGDRGLYSCTATENNFKHIVTRVQLHVLGRDAVHAALFPPLAVSVPPPPGTGPPTPPYQELAQLLAQPEVGLIHQYCQGYWRHVPPRPREAPGALRPPELQDQKKPRNRRHHPPDT	do bind	Yes	do not affect	No	

More lines, main results first:

binding of ligand to NRP2 (NRP2)	Binding to NRP2 observed by SPR (NRP2)	effect of ligand on binding of NRP2 to Fc-HRS(2-60) (SPR) [1]	Competes with Fc-HRS(2-60) for NRP2 binding [1]	Molecule	inhibition of Fc-HRS (2-60) binding to cells expressing NRP2a-GFP [2]
	Yes	reduced or ablated	Yes	VEGF-C: commercial NRP2 ligand protein (R&D Systems) (protein) TEETIKFAAAHYNTEILKSIDNEWRKTQCMPREVCIDVGKEFGVATNTFFKPPCVSVYRCGGCCNSEGLQCMNTSTSYLSKTLFEITVPLSQGPKPVTISFANHTSCRCMSKLDVYRQVHSIIRR	binding inhibition; also recorded: direct competition
			Yes	PlGf-2/Heparin (protein) LPAVPPQQWALSAGNGSSEVEVVPFQEVWGRSYCRALERLVDVVSEYPSEVEHMFSPSCVSLLRCTGCCGDENLHCVPVETANVTMQLLKIRSGDRPSYVELTFSQHVRCECRPLREKMKPERRRPKGRGKRRREKQRPTDCHLCGDAVPRR	
does not bind NRP2 in our system	No	unaffected	No	VEGF-A145: commercial protein (R&D Systems #7626-VE-CF) (protein) APMAEGGGQNHHEVVKFMDVYQRSYCHPIETLVDIFQEYPDEIEYIFKPSCVPLMRCGGCCNDEGLECVPTEESNITMQIMRIKPHQGQHIGEMSFLQHNKCECRPKKDRARQEKKSVRGKGKGQKRKRKKSRYKSWSVCDKPRR	
